B1: IL6R-BP256/IL6R-L (antibody, human IgG1, kappa)
heavy: QVQLQESGPGLVKPSETLSLTCAVSGHSISHDHAWSWVRQPPGEGLEWIGFISYSGITNYNPSLQGRVTISRDNSKNTLYLQMNSLRAEDTAVYYCARSLARTTAMDYWGEGTLVTVSSASTKGPSVFPLAPSSKSTSGGTAALGCLVKDYFPEPVTVSWNSGALTSGVHTFPAVLQSSGLYSLSSVVTVPSSSLGTQTYICNVNHKPSNTKVDKKVEPKSCDKTHTCPPCPAPDLLGDDDVFLFPPKPKDTLMISRTPEVTCVVVDVSDEDGEVKFNWYVDGVEVHNAKTKPREEQYNSTYRVVSVLTVLHQDWLNGKEYKCKVSNKALPRPIEKTISKAKGQPREPQVYTLPPSRDELTKNQVSLTCLVKGFYPSDIAVEWESNGQPENNYKTTPPVLDSDGSFFLYSKLTVDKSRWQQGNVFSCSVMHEALHNHYTQESLSLSP
light: not shown
notes: Homodimerized antibody; IL6R-BP256 is IL6R-BP208 with S239D
B2: IL6R-AP002/IL6R-BP256/IL6R-L (antibody, human IgG1, kappa)
heavy 1: B1 heavy with D241S, D358K, H437R, E441K
heavy 2: B1 heavy
light: not shown
notes: Heterodimerized antibody with S239D in one H chain only; IL6R-AP002 is IL6R-A5 (IL6R-G1d with D356K and H435R) with E233D, G237D, P238D, H268D, P271G and A330R
B3: IL6R-BP257/IL6R-L (antibody, human IgG1, kappa)
heavy: B1 heavy with D241E
light: not shown
notes: Homodimerized antibody; IL6R-BP257 is IL6R-BP208 with S239E
B4: IL6R-AP002/IL6R-BP257/IL6R-L (antibody, human IgG1, kappa)
heavy 1: B1 heavy with D241S, D358K, H437R, E441K
heavy 2: B1 heavy with D241E
light: not shown
notes: Heterodimerized antibody with S239E in one H chain only
B5: J142-z72/L180-k (antibody, human IgG4 S228P, kappa)
heavy: QVQLVQSGSELKKPGASVKVSCKASGYTFTDNNMDWVRQAPGQGLEWMGDINTRSGGSIYNEEFQDRVTMTIDKSTGTAYMELSSLRSEDTAVYYCARRRSYGYYHDEWGEGTLVTVSSASTKGPSVFPLAPCSRSTSESTAALGCLVKDYFPEPVTVSWNSGALTSGVHTFPAVLQSSGLYSLSSVVTVPSSSLGTKTYTCNVDHKPSNTKVDKRVESKYGPPCPPCPAPEFLGGPSVFLFPPKPKDTLMISRTPEVTCVVVDVSQEDPEVQFNWYVDGVEVHNAKTKPREEQFNSTYRVVSVLTVLHQDWLNGKEYKCKVSNKGLPSSIEKTISKAKGQPREPQVYTLPPSQEEMTKNQVSLTCLVKGFYPSDIAVEWESNGQPENNYKTTPPVLDSDGSFFLYSRLTVDKSRWQEGNVFSCSVMHEALHNRFTQKSLSLSP
light: DIQMTQSPSSLSASVGDRVTITCKASRNIERNLAWYQQKPGQAPELLIYSASRKESGVPDRFSGSRYGTDFTLTISSLQPEDLATYYCQQYYSPPLTFGGGTKVEIKRTVAAPSVFIFPPSDEQLKSGTASVVCLLNNFYPREAKVQWKVDNALQSGNSQESVTEQDSKDSTYSLSSTLTLSKADYEKHKVYACEVTHQGLSSPVTKSFNRGEC
notes: also called homomeric antibody against FX
B6: J300-z107/L210-k (antibody, human IgG4 S228P, kappa)
heavy: QVQLVQSGSELKKPGASVKVSCKASGYTFTDNNMDWVRQAPGQGLEWMGDINTRSGGSIYNEEFQDRVIMTVDKSTDTAYMELSSLRSEDTAVYHCARRKSYGYYLDEWGEGTLVTVSSASTKGPSVFPLAPCSRSTSESTAALGCLVKDYFPEPVTVSWNSGALTSGVHTFPAVLQSSGLYSLSSVVTVPSSSLGTQTYTCNVDHKPSNTKVDKRVESKYGPPCPPCPAPEFLGGPSVFLFPPKPKDTLMISRTPEVTCVVVDVSQEDPEVQFNWYVDGVEVHNAKTKPREEQYNSTYRVVSVLTVLHQDWLNGKEYKCKVSNKGLPSSIEKTISKAKGQPREPQVYTLPPSQEEMTKNQVSLTCLVKGFYPSDIAVEWESNGQPENNYKTTPPVLDSDGSFFLYSKLTVDKSRWQEGNVFSCSVMHEALHNRYTQESLSLSP
light: B5 light with L83I, Y92S
notes: z107 carries H435R; also called homomeric antibody against FX
B7: J142-z73/L180-k (antibody, human IgG4 S228P, kappa)
heavy: B5 heavy with K438E
light: B5 light
notes: as for B5

Positions count from the first letter of the chain named. Names and notes keep the numbering of the source.

In the first test the target is T1, FcgRIIb extracellular domain with C-terminal His tag (human, UniProt P31994 43-217).
T1 construct: extracellular domain; Expressed in FreeStyle293 cells; also called FcγRIIb; 2b; not shown: His tag at the C terminus
T1 sequence (looked up): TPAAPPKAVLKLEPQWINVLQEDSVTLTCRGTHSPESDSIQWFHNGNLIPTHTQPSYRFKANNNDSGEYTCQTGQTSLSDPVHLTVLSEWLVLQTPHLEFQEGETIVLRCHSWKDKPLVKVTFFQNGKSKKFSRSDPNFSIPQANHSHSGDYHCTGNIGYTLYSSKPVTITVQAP
The test is described as follows: SPR (Biacore), antibody captured on chip, soluble FcgR as analyte, kinetic 1:1 fit. Here is the method:
(§1) The variants were assessed for the binding activity to FcgR Ia, FcgR IIaR, FcgR IIaH, and FcgRIIb according to the method described in Reference Example 8.
(§2) Analysis of interaction between obj ective antibody and the FcγR was carried out using Biacore T100 (GE Healthcare), Biacore T200, Biacore A100, and Biacore 4000. HBS-EP+ (GE Healthcare) was used as the running buffer, and the measurement temperature was set to 25° C. Chips produced by immobilizing the antigen peptide by the amine coupling method to a Series S sensor Chip CM5 (GE Healthcare), chips produced by allowing preliminarily biotinylated antigen peptides to interact with and immobilize onto a Series S Sensor Chip SA (certified) (GE Healthcare), chips produced by immobilizing Protein L (ACTIGEN, BioVision) to Series S Sencor Chip CM5 (GE Healthcare), or chips produced by immobilizing Protein A/G (Thermo Scientific) to Series S Sencor Chip CM5 (GE Healthcare) were used. Antibodies of interest were captured onto these chips, and allowed to interact to each FcγR diluted with running buffer. To regenerate and repeatedly use the chip, the antibodies captured onto the chip were washed off by reacting 10 mM glycine-HCl, pH 1.5.
In general terms: In SPR one partner is held on a chip, and binding of the other changes the refractive index at the surface.
In turn, B1 returned a Kd of 87 nM.

On to B2, for which the Kd came out at 4.1 nM.

As for B3, the Kd is 430 nM.

As to B4, the affinity, expressed as Kd, was 4.7 nM.

The target of the next test is T2, FcgRIIa type R extracellular domain with C-terminal His tag (human, UniProt P12318 34-217).
T2 construct: extracellular domain; also called FcgRIIaR; FcgRIIa R; not shown: His tag at the C terminus
T2 sequence (looked up): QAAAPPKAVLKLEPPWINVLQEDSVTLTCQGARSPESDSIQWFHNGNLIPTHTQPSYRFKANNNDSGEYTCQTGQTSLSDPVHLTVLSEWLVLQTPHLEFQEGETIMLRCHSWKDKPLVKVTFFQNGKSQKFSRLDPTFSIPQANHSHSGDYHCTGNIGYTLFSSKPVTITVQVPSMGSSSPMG
The description is as above. As to the method:
as §1, §2
B1 displayed a Kd of 730 nM.

Regarding B2, the Kd worked out at 140 nM.

Molecule B3 registered a Kd of 1300 nM.

Regarding B4, binding was characterised by a dissociation constant (Kd) of 130 nM.

The target of the next test is T3, FcgRIIa type H extracellular domain with C-terminal His tag (human, UniProt P12318 34-217).
T3 construct: extracellular domain; also called FcgRIIaH; FcgRIIa H; not shown: His tag at the C terminus
T3 sequence (looked up): T2 sequence (looked up) with R134H
Described as above. As to the method: as §1, §2
B2 had a Kd of 4200 nM.

Molecule B4 yielded a Kd of 4900 nM.

The target of a further test is T4, FcgRIa extracellular domain with C-terminal His tag (human, UniProt P12314 16-292).
T4 construct: extracellular domain; Expressed in FreeStyle293 cells; also called FcγRIa; not shown: His tag at the C terminus
T4 sequence (P12314 16-292): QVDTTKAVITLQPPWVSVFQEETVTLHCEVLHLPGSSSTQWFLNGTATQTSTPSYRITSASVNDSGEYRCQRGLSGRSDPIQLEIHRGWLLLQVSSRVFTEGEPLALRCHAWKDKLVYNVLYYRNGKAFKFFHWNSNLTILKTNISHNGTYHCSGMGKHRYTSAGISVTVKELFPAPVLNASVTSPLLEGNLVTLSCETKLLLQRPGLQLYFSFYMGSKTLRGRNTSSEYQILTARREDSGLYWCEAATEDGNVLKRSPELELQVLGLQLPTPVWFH
The test is described as above. As to the method: as §1, §2
B1 registered a Kd of 2 nM.

Take B2: the Kd came to 3.6 nM.

In turn, B3 showed a Kd of 0.31 nM.

B4: the Kd is 1.9 nM.

The next test addresses T3, FcgRIIa type H extracellular domain …. The test is described as follows: SPR (Biacore), antibody captured on chip, soluble FcgR as analyte; too weak for kinetics, KD from steady-state 1:1 equation. Here is the method:
(§3) KD can be calculated by substituting the values of Rmax, RI, and C into this equation. The values of RI and C can be determined from the sensorgram of the measurement results and measurement conditions. Rmax was calculated according to the following method.
In the case of B1, the Kd was determined as 21000 nM.

B3: the Kd turned out to be 39000 nM.

The target in the next test is T5, FcgRIIIa type V extracellular domain with C-terminal His tag (human, UniProt P08637 17-208).
T5 construct: extracellular domain; also called FcgRIIIaV; FcgRIIIa V; not shown: His tag at the C terminus
T5 sequence (P08637 17-208 F176V): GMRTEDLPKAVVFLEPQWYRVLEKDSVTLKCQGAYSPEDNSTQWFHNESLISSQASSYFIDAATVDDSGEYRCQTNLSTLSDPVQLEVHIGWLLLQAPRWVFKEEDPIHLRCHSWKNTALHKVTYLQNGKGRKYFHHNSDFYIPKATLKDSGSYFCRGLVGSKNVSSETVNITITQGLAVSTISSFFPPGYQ
The description is as above. Here is the method: as §3
For B1, the dissociation constant (Kd) amounted to 11000 nM.

Molecule B2 came in with a Kd of 17000 nM.

Take B3: binding was characterised by a dissociation constant (Kd) of 19000 nM.

B4: the affinity, expressed as Kd, was 14000 nM.

A further test concerns the target T1, FcgRIIb extracellular domain with …. The test is described as follows: SPR (Biacore); KD of IL6R-B3/IL6R-L for this FcgR divided by KD of the sample. As to the method: as §2
As for B1, the “Relative KD” value is 35.7 ratio.

For the molecule B2, the “Relative KD” value was determined as 752 ratio.

Regarding B3, the “Relative KD” value was 7.2 ratio.

On to B4, for which the “Relative KD” value worked out at 657 ratio.

Another test has as its target T2, FcgRIIa type R extracellular domain …. Described as above. Here is the method: as §2
For the molecule B1, the “Relative KD” value is 1.5 ratio.

With B2, the “Relative KD” value stood at 7.7 ratio.

Consider B3, for which the “Relative KD” value came out at 0.9 ratio.

Regarding B4, the “Relative KD” value is 8.3 ratio.

Another test has as its target T3, FcgRIIa type H extracellular domain …. The description is as above. Here is the method:
as §2
Turning to B1, the “Relative KD” value worked out at 0 ratio.

As for B2, the “Relative KD” value turned out to be 0.2 ratio.

Turning to B3, the “Relative KD” value is 0 ratio.

On to B4, for which the “Relative KD” value is 0.2 ratio.

A further test has as its target T1, FcgRIIb extracellular domain with …. The test is described as follows: SPR (Biacore); KD of the sample for FcgRIIaR divided by its KD for FcgRIIb (selectivity for FcgRIIb). As to the method: as §2
On to B1, for which the “KD(IIaR)/KD(IIb)” value came to 8.4 ratio.

Regarding B2, the “KD(IIaR)/KD(IIb)” value came out at 34.3 ratio.

For B3, the “KD(IIaR)/KD(IIb)” value is 3 ratio.

As to B4, the “KD(IIaR)/KD(IIb)” value came to 27.7 ratio.

For a further test, the target named is T6, Protein A (UniProt P38507 37-327).
T6 construct: bought resin; construct not described; also called rProtein A Sepharose Fast Flow
The test is described as follows: rProtein A Sepharose column, stepwise pH elution; fractions analysed by cation exchange chromatography.
Take B5: the binding result is reported as “no binding”.

Regarding B6, the binding result was “no binding”.

B7: the binding result is reported as “no binding”.

As usually defined, the Kd is the constant that tells how readily two partners part at equilibrium.
